Positions count from the first letter of the chain named.
B1: T1: wheat EPSPS mutant, SEQ ID NO: 16, mutation S269(247)G (protein)
chain: MATSVAAPAAPAGAEEVVLQPIREISGAVQLPGSKSLSNRILLLSALSEGTTVVDNLLNSEDVHYMLEALEALGLSVEADKVAKRAVVVGCGGRFPVEKDAKEEVKLFLGNAGTAMRPLTAAVVAAGGNATYVLDGVPRMRERPIGDLVVGLQQLGADVDCFLGTNCPPVRINGKGGLPGGKVKLSGSISSQYLSSLLMAAPLALEDVEIEIIDKLISVPYVEMTLKLMEHFGVTAEHSDSWDRFYIKGGQKYKSPGNAYVEGDASSAGYFLAGAAITGGTVTVEGCGTTSLQGDVKFAEVLEMMGAKVTWTDTSVTVTGPPRQPFGRKHLKAVDVNMNKMPDVAMTLAVVALFADGPTAIRDVASWRVKETERMVAIRTELTKLGATVEEGPDYCIITPPEKLNITAIDTYDDHRMAMAFSLAACAEVPVTIRDPGCTRKTFPNYFDVLSTFVKN
B2: T3: wheat EPSPS mutant, SEQ ID NO: 20, mutations S269(247)G and P118(101)S (protein)
chain: B1 chain with P118S
B3: T4: wheat EPSPS mutant, SEQ ID NO: 22, mutation L216(195)P (protein)
chain: B1 chain with L216P, G269S
B4: T5: wheat EPSPS mutant, SEQ ID NO: 24, mutations L216(195)P and S269(247)G (protein)
chain: B1 chain with L216P
B5: T6: wheat EPSPS mutant, SEQ ID NO: 26, mutations L216(195)P, S269(247)G and P118(101)S (protein)
chain: B1 chain with P118S, L216P
B6: G3: soybean EPSPS mutant, SEQ ID NO: 8, mutations L212(195)P and P114(101)S (protein)
chain: MAAAEKPSTAPEIVLEPIKDISGTITLPGSKSLSNRILLLAALSEGTTVVDNLLYSEDIHYMLGALRTLGLRVEDDQTTKQAIVEGCGGLFPTIKESKDEINLFLGNAGTAMRSLTAAVVAAGGNASYVLDGVPRMRERPIGDLVAGLKQLGADVDCFLGTNCPPVRVNGKGGLPGGKVKLSGSVSSQYLTALLMAAPLALGDVEIEIVDKPISVPYVEMTLKLMERFGVSVEHSGDWDKFLVHGGQKYKSPGNAFVEGDASSASYFLAGAAVTGGTITVNGCGTSSLQGDVKFAEVLEKMGAKVTWSENSVTVTGPPQDSSGQKVLQGIDVNMNKMPDVAMTLAVVALFANGQTTIRDVASWRVKETERMIAICTELRKLGATVEEGPDYCVITPPEKLNVTAIDTYDDHRMAMAFSLAACGDVPVTIKDPGCTRKTFPDYFEVLERFTRH
B7: G4: soybean EPSPS mutant, SEQ ID NO: 10, mutation S265(247)G (protein)
chain: B6 chain with S114P, P212L, S265G
B8: G5: soybean EPSPS mutant, SEQ ID NO: 12, mutations S265(247)G and P114(101)S (protein)
chain: B6 chain with P212L, S265G
B9: R0: wild-type rice EPSPS, amino acid sequence SEQ ID NO: 28; control (protein, listed as Oryza sativa)
chain: MASNAAAAAAKAEEIVLQPIREISGAVQLPGSKSLSNRILLLSALSEGTTVVDNLLNSEDVHYMLEALKALGLSVEADKVAKRAVVVGCGGKFPVEKDAKEEVQLFLGNAGTAMRPLTAAVTAAGGNATYVLDGVPRMRERPIGDLVVGLKQLGADVDCFLGTECPPVRVKGIGGLPGGKVKLSGSISSQYLSALLMAAPLALGDVEIEIIDKLISIPYVEMTLRLMERFGVKAEHSDSWDRFYIKGGQKYKSPGNAYVEGDASSASYFLAGAAITGGTVTVQGCGTTSLQGDVKFAEVLEMMGAKVTWTDTSVTVTGPPREPYGKKHLKAVDVNMNKMPDVAMTLAVVALFADGPTAIRDVASWRVKETERMVAIRTELTKLGASVEEGPDYCIITPPEKLNITAIDTYDDHRMAMAFSLAACADVPVTIRDPGCTRKTFPNYFDVLSTFVRN
B10: T0: wild-type wheat EPSPS, amino acid sequence SEQ ID NO: 14; control (protein, listed as Triticum aestivum)
chain: B1 chain with G269S
B11: T2: wheat EPSPS mutant, SEQ ID NO: 18, merely containing the mutation P118(101)S; control (protein)
chain: B1 chain with P118S, G269S

test system: double knockout E. coli (EPSPS defective E. coli, EDCE); test: growth of EPSPS defective E. coli transformed by the EPSPS gene in M9 culture media containing different glyphosate concentrations; type: cell-based, E. coli DH5α; settings: not given
Description: A method for detecting the glyphosate resistance of the soybean EPSPS mutant G1 provided in Example 1 and the soybean EPSPS mutant G3 provided in Example 2 is as follows:
according to the sequence of the nucleic acid molecule provided in the example, synthesizing the encoding gene that encodes the soybean EPSPS mutant G1 or G3 using a chemical synthesis method, introducing enzyme sites (Pac1 and Sbf1) at two ends thereof, connecting to an expression vector (for example, a pADV5 vector, the structure of which is as shown in FIG. 15) that has undergone the same restriction enzyme digestion treatment under the action of ligase after restriction enzyme digestion, then transforming double knockout E. coli, picking positive colonies after verification, inoculating the positive colonies to M9 culture media containing different glyphosate concentrations for growth, and observing the growth situation of the E. coli.
The wild-type soybean EPSPS (with an amino acid sequence represented by SEQ ID NO: 2 and an encoding gene sequence represented by SEQ ID NO: 1) and the soybean EPSPS mutant G2 (with an amino acid sequence represented by SEQ ID NO: 6, and a corresponding encoding gene sequence represented by SEQ ID NO: 5) merely containing the mutation P114(101)S were taken as controls.
In the above, the M9 basal culture medium can be prepared by the following method:
5×M9 salt solution: 6.78 g of Na2HPO4, 3.0 g of KH2PO4, 0.5 g of NaCl, and 1.0 g of NH4Cl were weighed, added with ddH2O to 200 ml, and subjected to high-temperature and high-pressure sterilization treatment;
20% glucose: 20 g of glucose was weighed, added with 80 ml of ddH2O for dissolving, diluted to 100 ml, and subjected to filtration and sterilization treatment;
1.0 M MgSO4: 24.6 g of MgSO4-7H2O was weighed, dissolved with 80 ml of ddH2O, diluted to 100 ml, and subjected to sterilization treatment;
1.0 M CaCl2: 11.1 g of CaCl2 was weighed, dissolved with 80 ml of ddH2O, diluted to 100 ml, and subjected to sterilization treatment; and
1000 ml of the M9 basal culture media were prepared by adding ddH2O to 200 ml of 5×M9 salt solution, 20 ml of 20% glucose, 2 ml of 1.0 M MgSO4 and 0.1 ml of 1.0 M CaCl2 to make up to 1000 ml.
In the above, the E. coli used was double knockout E. coli, namely, EPSPS defective E. coli (E. coli DH5α with EPSPS gene and C-P Lyase gene being knocked out, named as EDCE, wherein for a preparation method thereof, reference can be made to a Chinese invention patent with the filing number CN2016103256926).
The glyphosate resistance of the soybean EPSPS mutant G4 provided in Example 3 and the soybean EPSPS mutant G5 provided in Example 4 was verified with reference to the detection method in Experiment Example 1.
The wild-type wheat EPSPS (with an amino acid sequence represented by SEQ ID NO: 14, and a corresponding encoding gene sequence represented by SEQ ID NO: 13) and the wheat EPSPS mutant T2 (with an amino acid sequence represented by SEQ ID NO: 18, and a corresponding encoding gene sequence represented by SEQ ID NO: 17) merely containing the mutation P118(101)S were taken as controls to verify the glyphosate resistance of the wheat EPSPS mutants T1 and T3 provided in Example 5 and Example 6, and reference can be made to Experiment Example 1 for the method.
A method for verifying the glyphosate resistance of the wheat EPSPS mutants T4, T5, and T6 provided in Examples 7-9 is the same as that in Experiment Example 3.
The wild-type rice EPSPS R0 (with an amino acid sequence represented by SEQ ID NO: 28, and a corresponding encoding gene sequence represented by SEQ ID NO: 27) and the rice EPSPS mutant R2 (with an amino acid sequence represented by SEQ ID NO: 32, and a corresponding encoding gene sequence represented by SEQ ID NO: 31) merely containing the mutation P116(101)S were taken as controls to verify the glyphosate resistance of the rice EPSPS mutants R1 and R3 provided in Examples 10 and 11, and reference can be made to Experiment Example 1 for the method. […]

| Molecule | glyphosate resistance (overall statement) |
| --- | --- |
| B1 | have glyphosate resistance |
| B2 | have glyphosate resistance |

same assay, conditions: concluded from growth of defective E. coli at 0 mM glyphosate

| Molecule | EPSPS enzyme activity |
| --- | --- |
| B3 | normal EPSPS enzyme activity |
| B4 | normal EPSPS enzyme activity |
| B5 | normal EPSPS enzyme activity |

same assay, conditions: culture media containing 0 mM glyphosate

| Molecule | growth of the E. coli transformed by the EPSPS |
| --- | --- |
| B6 | could grow |
| B7 | could grow |
| B8 | could grow |
| B9 | could grow |
| B10 | could grow |
| B3 | could grow |
| B4 | could grow |
| B1 | could grow |
| B11 | could grow |
| B2 | could grow |
| B5 | could grow |

same assay, conditions: culture media containing 1 mM glyphosate

| Molecule | growth of the E. coli transformed by the EPSPS | growth of the transformed E. coli compared with E. coli transformed by the control EPSPS named in the value |
| --- | --- | --- |
| B10 | substantially could not grow | – |
| B3 | could grow normally | – |
| B4 | could grow normally | – |
| B1 | could grow normally | obviously superior to that of the E. coli transformed by T0 |
| B11 | could grow normally | – |
| B2 | could grow normally | – |
| B5 | could grow normally | – |

same assay, conditions: culture media containing 5 mM glyphosate

| Molecule | growth of the transformed E. coli compared with E. coli transformed by the control EPSPS named in the value | growth of the E. coli transformed by the EPSPS |
| --- | --- | --- |
| B7 | superior to that of the E. coli transformed by G0 | – |
| B9 | – | could not grow |
| B3 | – | did not grow obviously |
| B4 | – | grew obviously |
| B1 | – | did not grow obviously |
| B11 | – | could grow |
| B5 | obviously superior to that of the E. coli transformed by T2 | could grow |

same assay, conditions: culture media containing 10 mM glyphosate

| Molecule | growth of the E. coli transformed by the EPSPS | growth of the transformed E. coli compared with E. coli transformed by the control EPSPS named in the value |
| --- | --- | --- |
| B8 | could grow | obviously superior to that of the E. coli transformed by G2 |
| B9 | could not grow | – |
| B11 | could grow | – |
| B2 | could grow | obviously superior to that of the E. coli transformed by T2 |

same assay, conditions: culture media containing 20 mM glyphosate

| Molecule | growth of the E. coli transformed by the EPSPS | growth of the transformed E. coli compared with E. coli transformed by the control EPSPS named in the value |
| --- | --- | --- |
| B6 | could grow | superior to that of the E. coli transformed by the soybean EPSPS mutant G2 |
| B11 | could grow | – |
| B5 | could grow | obviously superior to that of the E. coli transformed by T2 |
